Drawing on US20220195015A1 (published 2022), this text covers EC50 for nine molecules.

Sequences and labels used below:
B1: C525 (antibody, V domains shown)
VH: EVQLVESGGRLVQPGRSLRLSCAASGFTFDDYAIHWVRQAPGKGLEWVSGISWNSGSIGYADSVRGRFTISRDNAKNSLYLQMNSLRAEDTALYYCAKGLDSSSSASPDYWGQGTLVTVSS
VL: DIQMTQSPSSVSASVGDRVTITCRASQDISSWLAWYQQKPGKAPKLLIYLASSLQSGVPSRFSGSGSGTDFILTISSLQPEDFGTYYCQQGNSFPLTFGGGTKVEIK
B2: C529 (antibody, V domains shown)
VH: EVQLLESGGGLVQPGGSLRLSCAASGFTFNNYAMNWVRQAPGRGLEWVSGISGSGANTYYADSVKGRFTISRDNPKNTLSLQMNSLRAEDTALYYCAKVLSPTYYDSWSGPDAFDFWGQGTMVTVSS
VL: DIQMTQSPSTLSASVGDRVTITCRASQTISPWLAWYQQKPGKAPNLLIYKASSLESGVPSRFSGSGSGTEFTLTISSLQPDDFATYYCQQYNSYSSWTFGQGTKVEIK
B3: C526 (antibody, V domains shown)
VH: QVQLVQSGAEVKKPGASVKVSCKASGHTFTTYYLHWVRQAPGQGLEWMGRIDPSGGSTTYAQKFQGRVTMTRDTSTSTVYMELSSLRSEDTALYYCARGGYCGSTSCSPDDYFDYWGQGTLVTVSS
VL: SYELTQPPSVSVAPGKTARITCGGNNIGSKSVHWYQQKPGQAPVLVIYYDSDRPSGIPERFSGSNSGNTATLTISRVEAGDEADYYCQVWDSSSDHYYVFGTGTKVTVL
B4: C528 (antibody, V domains shown)
VH: EVQLVESGGGLVQPGGSLRLSCAASGFTFRNYDMHWVRQVAGKGLEWVSAIGTSGDTYYPDSVKGRFTISRENAKNSVYLQMNNLRAGDTAVYFCVRDREISGWTGWYFDLWGRGTLVTVSS
VL: DIQMTQSPSSLSASVGDRVTITCRASQTIHNYLNWYQQIPGKAPRLLIYATNTLQSGVPSRFSGSGSGTDFTLTITGLQPEDFATYYCQQSYSTPPITFGQGTRLEIK
B5: C530 (antibody, V domains shown)
VH: QVQLVESGGGVAQPGRSLRLSCAASGFTFSRYGMHWVRQAPGKGLEWVAVIWHDGSDKYCADFVKGRFTISRDNSKNTLYMQMDSLRAEDTAVYYCARGGRPDHETGIAVLGEYYFDSWGQGTLVTVSS
VL: SYELTQPPSVSVSPGQTARITCSGDAFPLQYGYWYQQKPGQAPVLVIYKDKERPSGISERFSGSSSGTTVTLTISGVQAEDEADYYCQSADTNGVVFGGGTSLTVL
B6: C527 (antibody, V domains shown)
VH: QVQLVESGGGVVQPGRSLRLSCAASGFTFSSYGMHWVRQAPGKGLEWVALIGYDGTDKYYAENVKGRFTISRDNSKNTLFLQMNSLRGGDTAVYLCARDGIPFRYGMDVWGQGTTVTVSS
VL: DIQMTQSPSTLSASVGDRVTITCRASQSIDIWLAWYQQKPGKAPKFLIHKASTLESGVPSRFSGSGSGTEFTLTISSLQPDDFATYYCQHYHSYSGTFGQGTKVEIK
B7: C563 (antibody, V domains shown)
VH: EVQLVESGGGLVKPGGSLRLSCAASGFPFTNAWMSWVRQAPGKGLEWVGHIKDYTDGGTTDYAAPVKGKFTISRDDSKNTLYLHMNSLKTEDTAVYYCSTVGSYYYDSRGPTSDAFDIWGQGTLVTVSS
VL: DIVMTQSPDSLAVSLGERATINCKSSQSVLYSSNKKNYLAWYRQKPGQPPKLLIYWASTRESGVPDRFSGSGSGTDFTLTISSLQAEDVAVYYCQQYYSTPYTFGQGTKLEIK
B8: C524 (antibody, V domains shown)
VH: EVQLVESGGDLIQPGGSLRLSCAASGFSVSNSYMSWVRQAPGKGLEWVSIIYSGGSTYYADSVKGRFTISRDNSKNTLYLQMNSLRAEDTAVYFCAKTPRGDYDSSGTSAYWGQGTLVTVSS
VL: QLVLTQSPSASASLGASVNLTCTLSSGHSSYAIAWHQQQPEKGPRFLMKLSSDGSHNKGDGIPDRFSGSSSGAERFLTISSLQSEDEADYYCQTWGIGSDWVFGGGTKLTVL
B9: C523 (antibody, V domains shown)
VH: QVQLQESGPGLVKPSETLSLTCTVSGASISSHYWSWIRQPPGKGLEWIGYIHYIGSTNYNPSLKSRVTILLDTSKNQFSLRLRSVTAADTAVYYCARGWPYCGVDCYSGFDYWGQGTLVTVSS
VL: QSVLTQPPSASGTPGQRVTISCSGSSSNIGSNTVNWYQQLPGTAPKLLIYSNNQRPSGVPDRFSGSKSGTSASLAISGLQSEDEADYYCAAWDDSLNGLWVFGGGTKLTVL

In general, EC50 refers to the midpoint of the concentration-response curve. A low value points to higher potency in that assay.

The target in the first test is SARS-CoV-2 spike receptor binding domain (RBD), wild type (SARS-CoV-2, UniProt P0DTC2 319-539). Put plainly: ELISA, RBD protein coated, mAb titrated.
Regarding B1, it took 10.6 ng/mL to reach a half-maximal effect (EC50).

The molecule B2 showed an EC50 of 8 ng/mL.

Turning to B3, the EC50 was determined as 18.2 ng/mL.

Take B4: the response was half-maximal at 5.66 ng/mL (EC50).

B5 gave an EC50 of 10.5 ng/mL.

B6 had an EC50 of 13.4 ng/mL.

The target is the same in the next test. Put plainly: ELISA, RBD protein coated, mAb titrated. The source holds these as a separate data set. Background: ELISA stands for enzyme-linked immunosorbent assay.
Take B7: a half-maximal response (EC50) required 1.19 ng/mL.

Turning to B8, it took 5 ng/mL to reach a half-maximal effect (EC50).

Regarding B9, the EC50 amounted to 9.08 ng/mL.
